These results are taken from patent US20240000957A1 (published 2024).

The labels stand for the following.
B1: Compound 17 (peptide)
peptide: [βAla][Sar][Sar][Sar][Sar][Sar][Sar][Sar][Sar][Sar][Sar]ACVPDRRCAYMNVC
modifications: linker 13-19-25 via TATA; not fully specified (C-terminus); printed as (β-Ala)-Sar10-ACVPDRRCAYMNVC
B2: Compound 88 (peptide)
peptide: Ac-CPLVNPLCLHPGWSCRGQ
modifications: linker 1-8-15 via TATA; not fully specified (C-terminus); printed as Ac-CPLVNPLCLHPGWSCRGQ
B3: Compound 93 (peptide)
peptide: ACPLVNPLCLHPG[2Nal]SCRGQ
modifications: linker 2-9-16 via TATA; not fully specified (C-terminus); printed as ACPLVNPLCLHPG(2Nal)SCRGQ

*1 amine or outer side, *2 acyl side, *3 side chain or, on linkers, in order; H or OH if unused. Bridges are numbered along the chain shown (N, C = ends). Where no end group is shown, it is not given here. [ ]: non-standard residue; d: D form. TATA = O=C(CC[*:1])N1CN(C(=O)CC[*:2])CN(C(=O)CC[*:3])C1; 2Nal = N[C@@H](Cc1ccc2ccccc2c1)C(=O)O; βAla = NCCC(=O)O; Sar = CNCC(=O)O

The target of the test is T1, Human EphA2 (Ecto), C-terminal polyHis (Human, UniProt P29317 24-537).
T1 construct: extracellular domain; R&D systems 3035-A2 or in-house
T1 sequence (P29317 24-537): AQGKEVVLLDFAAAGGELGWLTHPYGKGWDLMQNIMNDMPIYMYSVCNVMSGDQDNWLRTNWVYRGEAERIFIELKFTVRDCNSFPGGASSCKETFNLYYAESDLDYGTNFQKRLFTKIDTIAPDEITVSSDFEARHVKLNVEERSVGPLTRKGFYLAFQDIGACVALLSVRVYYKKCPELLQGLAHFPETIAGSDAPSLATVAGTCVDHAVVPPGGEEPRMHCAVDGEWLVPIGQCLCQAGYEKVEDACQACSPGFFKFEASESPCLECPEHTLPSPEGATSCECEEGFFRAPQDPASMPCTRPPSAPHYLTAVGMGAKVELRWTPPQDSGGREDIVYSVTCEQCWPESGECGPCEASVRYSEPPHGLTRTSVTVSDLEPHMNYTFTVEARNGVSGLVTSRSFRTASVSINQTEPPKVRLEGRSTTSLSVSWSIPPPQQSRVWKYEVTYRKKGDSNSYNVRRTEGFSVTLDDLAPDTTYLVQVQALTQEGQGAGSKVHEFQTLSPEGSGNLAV
In words: FP competition vs Reference Compound C.
The term Ki denotes a dissociation constant, usually derived from enzyme kinetics or from competition with a known ligand. Read a high Ki as a looser hold on the target. ACGFMGLVPCNVFCA (linker 2-10-14 via TATA; not fully specified (C-terminus)) [Compound 45] came in with an inhibition constant Ki of 142 nM.
As to DLRCGGDPRCAYMNVCA (linker 4-10-16 via TATA) [Compound 18], the Ki turned out to be 70.8 nM.
As to ACVPDRRCAFQDVCDHE (linker 2-8-14 via TATA; not fully specified (C-terminus)) [Compound 27], the inhibition constant Ki worked out at 159 nM.
The result for ACPLVNPLCLHPGWTCA (linker 2-9-16 via TATA; not fully specified (C-terminus)) [Compound 64] reads 30 nM; that for ACPLVNPLCLEPGWTCA (linker 2-9-16 via TATA; not fully specified (C-terminus)) [Compound 84], 53.9 nM.
ACPLVNPLCLHPGWSCA (linker 2-9-16 via TATA; not fully specified (C-terminus)) [Compound 86]: the Ki worked out at 56.1 nM.
ACPMVNPLCLHPGWICA (linker 2-9-16 via TATA; not fully specified (C-terminus)) [Compound 53] registered a Ki of 15.4 nM.
The molecule ACPLVNPLCLHPGWRCA (linker 2-9-16 via TATA; not fully specified (C-terminus)) [Compound 55] yielded an inhibition constant Ki of 20.6 nM.
The result for ACPLVNPLCLAPGWTCA (linker 2-9-16 via TATA; not fully specified (C-terminus)) [Compound 82] reads 46.2 nM.
On to ACPLVNPLCLHPGWICA (linker 2-9-16 via TATA; not fully specified (C-terminus)) [Compound 54], for which the affinity, expressed as Ki, was 15.2 nM.
Molecule ACPLVNPLCLVPGWSCA (linker 2-9-16 via TATA; not fully specified (C-terminus)) [Compound 57] showed a Ki of 35.4 nM.
The result for ACPMVNPLCLHPGWTCA (linker 2-9-16 via TATA) [Compound 97] reads 20 nM; that for ACPLVNPLCLEPGWTCAKR (linker 2-9-16 via TATA; not fully specified (C-terminus)) [Compound 85], 10.9 nM.
In turn, ACVPDRRCAFMNVCEDR (linker 2-8-14 via TATA; not fully specified (C-terminus)) [Compound 26] displayed a Ki of 39 nM.
The molecule TPRCPLVNPLCLMPGWTCA (linker 4-11-18 via TATA; not fully specified (C-terminus)) [Compound 81] yielded an inhibitory constant (Ki) of 9.8 nM.
GSGCKPDSRCAYMNVCA (linker 4-10-16 via TATA; not fully specified (C-terminus)) [Compound 22] gave a Ki of 63.2 nM.
ACGFMGLVPCEVHCA (linker 2-10-14 via TATA; not fully specified (C-terminus)) [Compound 41]: affinity was put at a Ki of 155 nM.
As for ACRGEWGYCAYPDTICA (linker 2-9-16 via TATA; not fully specified (C-terminus)) [Compound 34], the Ki was found to be 348 nM.
The result for ACRNWGMYCAYPDTICA (linker 2-9-16 via TATA; not fully specified (C-terminus)) [Compound 35] reads 282 nM.
The result for ACGFMGLEPCELFCMPK (linker 2-10-14 via TATA; not fully specified (C-terminus)) [Compound 47] reads 185 nM; that for ACPDWGKYCAYPDTICA (linker 2-9-16 via TATA; not fully specified (C-terminus)) [Compound 36], 160 nM; that for ACGFMGLEPCELFCA (linker 2-10-14 via TATA; not fully specified (C-terminus)) [Compound 46], 81.7 nM.
In turn, ACGFMGLEPCEMYCA (linker 2-10-14 via TATA; not fully specified (C-terminus)) [Compound 50] returned a Ki of 140 nM.
The result for ACGFMGLEPCEMVCA (linker 2-10-14 via TATA; not fully specified (C-terminus)) [Compound 42] reads 320 nM.
The result for ACGFMGLEPCETFCA (linker 2-10-14 via TATA; not fully specified (C-terminus)) [Compound 40] reads 188 nM.
The result for ACGFMGLEPCELVCA (linker 2-10-14 via TATA; not fully specified (C-terminus)) [Compound 44] reads 127 nM.
Regarding ACVPDRRCAFRDVCLTG (linker 2-8-14 via TATA; not fully specified (C-terminus)) [Compound 28], the Ki worked out at 1700 nM.
With ACPLVNPLCLTPGWTCTNT (linker 2-9-16 via TATA; not fully specified (C-terminus)) [Compound 94], the inhibition constant Ki came to 13.2 nM.
As for ACVPDRRCAFENVCVDH (linker 2-8-14 via TATA; not fully specified (C-terminus)) [Compound 25], the Ki stood at 97.3 nM.
B1: the affinity, expressed as Ki, was 85 nM.
The result for ACGFMGLEPCVTYCA (linker 2-10-14 via TATA; not fully specified (C-terminus)) [Compound 43] reads 234 nM; that for ACSSCWAYPDSVCA (linker 2-5-13 via TATA; not fully specified (C-terminus)) [Compound 38], 400 nM.
The result for ACQSCWAYPDTYCA (linker 2-5-13 via TATA; not fully specified (C-terminus)) [Compound 39] reads 321 nM; that for HSGCRPDPRCAYMNVCA (linker 4-10-16 via TATA) [Compound 21], 62.1 nM.
Regarding SRPCVIDSRCAYMNVCA (linker 4-10-16 via TATA) [Compound 19], the Ki worked out at 94.8 nM.
For the molecule ACGFMGLEPCELYCAHT (linker 2-10-14 via TATA; not fully specified (C-terminus)) [Compound 49], the inhibitory constant (Ki) was 144 nM.
Take ACVPDRRCAYMNVCA (linker 2-8-14 via TATA) [Compound 16]: affinity was put at a Ki of 70 nM.
The result for B2 reads 1.64 nM.
Consider B3, for which the Ki worked out at 228 nM.
In turn, ACTKPTGFCAYPDTICA (linker 2-9-16 via TATA; not fully specified (C-terminus)) [Compound 33] yielded a Ki of 268 nM.
In turn, ETVCLPDSRCAYMNVCA (linker 4-10-16 via TATA; not fully specified (C-terminus)) [Compound 23] registered a Ki of 130 nM.
Take ACMNDWWCAMGWKCA (linker 2-8-14 via TATA) [Compound 15]: the inhibition constant Ki is 278 nM.
ESRCSPDARCAYMNVCA (linker 4-10-16 via TATA) [Compound 20]: the affinity corresponds to a Ki of 57 nM.
